# Measured values: patent US8552166, “High-affinity nucleic acid aptamers against sclerostin protein” (The University of Hong Kong)
# Target: Sclerostin (SOST) (Mus musculus, UniProt Q99P68 Q99P68:1-211)
# Test: ITC; PBS, 25 C; n=0.91, dH -10.9 kcal/mol, TdS -2.3 kcal/mol
# Details: tags: GST fusion (pGEX-4T1, E. coli BL21(DE3)); parallel G4 (CD, Tm 75 C)
# Method: Sclerostin-aptamer interaction was investigated by studying the thermodynamics of the interaction of aptamer Scl 2 with sclerostin by Isothermal Titration Calorimetry. In the upper panel of FIG. 7 the calorimetric titrations of the aptamers into sclerostin solution conducted at 25° C. An exothermic heat pulse was observed after each injection of aptamers into the protein solution. The binding stoichiometry was fitted using simple single site binding model. […] The dissociation constant for the interaction of aptamer Scl 2 with sclerostin is 500 nM that is a competitive value in DNA-protein interactions. In addition, the values of ΔH and ΔS reveal that the binding processes are enthalpically driven with a favorable enthalpy of reaction (ΔH) at 25° C. of −10.9 kcal/mol offset by an unfavorable entropy of reaction (TΔS=−2.3 kcal/mol).
# For Isothermal Titration Calorimetry, equilibrium binding studies between anti-sclerostin aptamers and scleorstin are performed on MicroCal VP-ITC. In a typical ITC experiment, 15 μM GST-sclerostin or 20 μM GST was loaded into the cell with 200 μM aptamer or random sequence in the titrating syringe. GST-sclerostin and GST were dialyzed into the PBS buffer with a MWCO of 10,000. The titration experiments were performed at 25° C. with an initial 0.2 μl injection, followed by thirty 1.2 μl A injections. The spacing between injections was 200 s. […]
# Chain of Sclerostin (SOST) (Q99P68 whole entry, one chain of several): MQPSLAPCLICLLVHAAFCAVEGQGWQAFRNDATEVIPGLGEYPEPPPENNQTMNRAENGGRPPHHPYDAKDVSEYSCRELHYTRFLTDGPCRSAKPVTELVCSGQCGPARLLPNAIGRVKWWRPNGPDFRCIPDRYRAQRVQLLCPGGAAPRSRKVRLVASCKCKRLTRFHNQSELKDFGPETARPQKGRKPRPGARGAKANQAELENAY
binder,measurement,value
TTGCGCGTTAATTGGGGGGGTGGGTGGGTT (ssDNA) [Scl 2],Kd,500 nM
